According to paper PMC9482650, “Quantitative fragmentomics allow affinity mapping of interactomes” (Nature Communications, 2022):
Values belong to the binder of their own block, whether it stands above or below them.

Tests used:
DLG1_3, Q12959 = experiment: holdup assay; design: key: below the threshold = too weak to quantify, mostly under pKd 3.1 to 4
Inadl_9, Q8NI35 = experiment: holdup assay; design: key: below the threshold = too weak to quantify, mostly under pKd 3.1 to 4
[1] = plain residues with an end cap or a label only (N-terminal biotin on a linker: ado-ado)
[2] = plain residues with an end cap or a label only (N-terminal biotin on a linker: ahx)

Chain of Inadl_9, Q8NI35 (Q8NI35 1530-1615): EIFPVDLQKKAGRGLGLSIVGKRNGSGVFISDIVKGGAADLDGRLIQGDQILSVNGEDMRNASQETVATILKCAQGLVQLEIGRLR
Chain of DLG1_3, Q12959 (Q12959 457-571): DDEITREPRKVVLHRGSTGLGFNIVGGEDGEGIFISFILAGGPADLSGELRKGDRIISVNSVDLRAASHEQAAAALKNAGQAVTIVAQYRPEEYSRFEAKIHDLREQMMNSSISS

B4: KLHDC7A, Q5VTJ3 (peptide)
chain: PTPDLPQTRV
pKd (DLG1_3, Q12959; [1]): below the threshold
pKd (Inadl_9, Q8NI35; [1]): 3.51

B5: CRIPT, Q9P021 (peptide)
chain: DTKNYKQTSV
pKd (DLG1_3, Q12959; [1]): 5.26
pKd (Inadl_9, Q8NI35; [1]): below the threshold

B6: MTNR1A, P48039 (peptide)
chain: NNNVVKVDSV
pKd (DLG1_3, Q12959; [1]): below the threshold
pKd (Inadl_9, Q8NI35; [1]): below the threshold

B8: SCN8A, Q9UQD0 (peptide)
chain: RQKEVRESKC
pKd (DLG1_3, Q12959; [1]): 4.13
pKd (Inadl_9, Q8NI35; [1]): below the threshold

B9: CLDN4, O14493 (peptide)
chain: ARSAAASNYV
pKd (DLG1_3, Q12959; [1]): below the threshold
pKd (Inadl_9, Q8NI35; [1]): 3.71

B11: FZD10, Q9ULW2 (peptide)
chain: EIPAQSPTCV
pKd (DLG1_3, Q12959; [1]): 4
pKd (Inadl_9, Q8NI35; [1]): 4.6

B15: CACNG2, Q9Y698 (peptide)
chain: NTANRRTTPV
pKd (DLG1_3, Q12959; [1]): 4.16
pKd (Inadl_9, Q8NI35; [1]): below the threshold

B17: GRIA2, P42262 (peptide)
chain: NVYGIESVKI
pKd (DLG1_3, Q12959; [1]): 3.93
pKd (Inadl_9, Q8NI35; [1]): below the threshold

B18: CACNA1A, O00555 (peptide)
chain: PYSESDDDWC
pKd (DLG1_3, Q12959; [1]): below the threshold
pKd (Inadl_9, Q8NI35; [1]): below the threshold

B19: ABCA1, O95477 (peptide)
chain: QDEKVKESYV
pKd (DLG1_3, Q12959; [2]): 3.76
pKd (Inadl_9, Q8NI35; [2]): 4.29

B20: FRMPD1, Q5SYB0 (peptide)
chain: TQKFRASTAL
pKd (DLG1_3, Q12959; [2]): 3.49
pKd (Inadl_9, Q8NI35; [2]): below the threshold

B21: ACE2, Q9BYF1 (peptide)
chain: QNTDDVQTSF
pKd (DLG1_3, Q12959; [2]): below the threshold
pKd (Inadl_9, Q8NI35; [2]): below the threshold

B22: FAM110D, Q8TAY7 (peptide)
chain: ARGPPRESEV
pKd (DLG1_3, Q12959; [1]): 4.36
pKd (Inadl_9, Q8NI35; [1]): 3.53

B23: CNTNAP2, Q9UHC6 (peptide)
chain: IDESKKEWLI
pKd (DLG1_3, Q12959; [1]): below the threshold
pKd (Inadl_9, Q8NI35; [1]): below the threshold

B24: KCNJ18, B7U540 (peptide)
chain: QRPYRRGSEI
pKd (DLG1_3, Q12959; [1]): below the threshold
pKd (Inadl_9, Q8NI35; [1]): below the threshold

B26: KCNJ4, P48050 (peptide)
chain: NISYRRESAI
pKd (DLG1_3, Q12959; [1]): 3.91
pKd (Inadl_9, Q8NI35; [1]): below the threshold

B27: CIB2, O75838 (peptide)
chain: DFLSTFHIRI
pKd (DLG1_3, Q12959; [1]): below the threshold
pKd (Inadl_9, Q8NI35; [1]): 3.66

B28: CACNG8, Q8WXS5 (peptide)
chain: NTLNRKTTPV
pKd (DLG1_3, Q12959; [1]): 4.33
pKd (Inadl_9, Q8NI35; [1]): below the threshold

B31: GPR12, P47775 (peptide)
chain: AQRARSPSDV
pKd (DLG1_3, Q12959; [1]): below the threshold
pKd (Inadl_9, Q8NI35; [1]): below the threshold

B34: MARCHF3, Q86UD3 (peptide)
chain: VKRNSKETVV
pKd (DLG1_3, Q12959; [1]): 4.32
pKd (Inadl_9, Q8NI35; [1]): below the threshold

B40: KIRREL2, Q6UWL6 (peptide)
chain: PSHPRLQTHV
pKd (DLG1_3, Q12959; [1]): below the threshold
pKd (Inadl_9, Q8NI35; [1]): below the threshold

B42: MKNK1, Q9BUB5 (peptide)
chain: GEDRSPPTAL
pKd (DLG1_3, Q12959; [1]): below the threshold
pKd (Inadl_9, Q8NI35; [1]): below the threshold

Now from value to binder:

pKd (DLG1_3, Q12959; [1]): 3.81
pKd (Inadl_9, Q8NI35; [1]): 3.62
B1: ZSCAN30, Q86W11 (peptide)
chain: MQHQRTHTRV

pKd (DLG1_3, Q12959; [1]): below the threshold
pKd (Inadl_9, Q8NI35; [1]): below the threshold
B2: SLC1A1, P43005 (peptide)
chain: TISFTQTSQF

pKd (DLG1_3, Q12959; [1]): below the threshold
pKd (Inadl_9, Q8NI35; [1]): below the threshold
B3: SLCO1A2, P46721 (peptide)
chain: LKDDELKTKL

pKd (DLG1_3, Q12959; [1]): below the threshold
pKd (Inadl_9, Q8NI35; [1]): below the threshold
B7: PTGIR, P43119 (peptide)
chain: AEASVACSLC

pKd (DLG1_3, Q12959; [1]): below the threshold
pKd (Inadl_9, Q8NI35; [1]): below the threshold
B10: MYPN, Q86TC9 (peptide)
chain: SRSVVESDEL

pKd (DLG1_3, Q12959; [1]): below the threshold
pKd (Inadl_9, Q8NI35; [1]): 3.83
B12: TRPV6, Q9H1D0 (peptide)
chain: EDGESWEYQI

pKd (DLG1_3, Q12959; [1]): below the threshold
pKd (Inadl_9, Q8NI35; [1]): below the threshold
B13: MYOT, Q9UBF9 (peptide)
chain: QSGLYESEEL

pKd (DLG1_3, Q12959; [1]): below the threshold
pKd (Inadl_9, Q8NI35; [1]): below the threshold
B14: SLC16A7, O60669 (peptide)
chain: SVTSERETNI

pKd (DLG1_3, Q12959; [1]): 3.99
pKd (Inadl_9, Q8NI35; [1]): below the threshold
B16: RPS6KA3, P51812 (peptide)
chain: GIKKITSTAL

pKd (DLG1_3, Q12959; [1]): 3.63
pKd (Inadl_9, Q8NI35; [1]): below the threshold
B25: PRR16, Q569H4 (peptide)
chain: ILRKSTTTTV

pKd (DLG1_3, Q12959; [2]): 4.11
pKd (Inadl_9, Q8NI35; [2]): below the threshold
B29: RTKN, Q9BST9 (peptide)
chain: QPRTWLQSPV

pKd (DLG1_3, Q12959; [1]): below the threshold
pKd (Inadl_9, Q8NI35; [1]): below the threshold
B30: PTTG2, Q9NZH5 (peptide)
chain: LPAVCYDIDI

pKd (DLG1_3, Q12959; [1]): below the threshold
pKd (Inadl_9, Q8NI35; [1]): 3.76
B32: PTPRZ1, P23471 (peptide)
chain: NIAESLESLV

pKd (DLG1_3, Q12959; [1]): below the threshold
pKd (Inadl_9, Q8NI35; [1]): below the threshold
B33: REELD1, A0A1B0GV85 (peptide)
chain: PSVGSKKTVL

pKd (DLG1_3, Q12959; [1]): below the threshold
pKd (Inadl_9, Q8NI35; [1]): 3.6
B35: MUC3A, MUC3B, Q02505;Q9H195 (peptide)
chain: KRPEMTSSSV

pKd (DLG1_3, Q12959; [1]): below the threshold
pKd (Inadl_9, Q8NI35; [1]): below the threshold
B36: SBF1, O95248 (peptide)
chain: DRIQSCLSDA

pKd (DLG1_3, Q12959; [1]): below the threshold
pKd (Inadl_9, Q8NI35; [1]): 4.28
B37: NECTIN1, Q15223 (peptide)
chain: SFISKKEWYV

pKd (DLG1_3, Q12959; [1]): below the threshold
pKd (Inadl_9, Q8NI35; [1]): 3.73
B38: PTPRG, P23470 (peptide)
chain: DPAESMESLV

pKd (DLG1_3, Q12959; [1]): below the threshold
pKd (Inadl_9, Q8NI35; [1]): below the threshold
B39: OR8G1, Q15617 (peptide)
chain: KKMLQRRTLL

pKd (Inadl_9, Q8NI35; [1]): below the threshold
B41: NF2, P35240;P35240-1 (peptide)
chain: KSRVAFFEEL
